Measurements reported in publication PMC6851300, “Calcium-activated chloride channel regulator 1 (CLCA1) forms non-covalent oligomers in colonic mucus and has mucin 2–processing properties” (The Journal of Biological Chemistry, 2019).

Key:
[1] = target: Recombinant human CLCA1 in spent supernatant of rCLCA1-expressing CHO-K1 cells (N- and C-terminal products) (human) (UniProt A8K7I4); test: native gel or EMSA; NativePAGE Novex Bis-Tris 4-16% with G-250; mucus and epithelial lysates from human sigmoid colon, WT and Clca1-/- mouse colon and desalted medium with rCLCA1; blotted with N- or C-terminal CLCA1 antibodies
[2] = target: C-terminal cleavage product of recombinant human CLCA1 in supernatant of transfected CHO-K1 cells (human) (UniProt A8K7I4); test: non-reducing SDS-PAGE with immunoblot; supernatant from hCLCA1-transfected CHO-K1 cells, reducing or nonreducing sample buffer, blotted with C terminus (3-ar) antibody; shows disulfide-linked species only
[3] = target: C-terminal cleavage product of human CLCA1 in sigmoid colon mucus and epithelium (human (endogenous in sigmoid colon)) (UniProt A8K7I4); test: non-reducing SDS-PAGE with immunoblot; mucus and epithelial lysate from mouse distal colon or human sigmoid colon, denatured in SDS sample buffer without DTT (non-reduced) against with 100 mM DTT (reduced), blotted with C-terminal CLCA1 antibodies; shows disulfide-linked species only
[4] = target: 250-kDa (nonreduced) fragment of MUC2-N after cleavage by rCLCA1, D′–D3 and CysD (human); test: non-reducing SDS-PAGE with SYPRO Ruby stain and immunoblot; recombinant MUC2-N with or without in vitro cleavage by rCLCA1 fractions (18 h, 37 C, 20 mM Tris-HCl pH 7.5, 150 mM NaCl, 10 mM CaCl2), separated without DTT; D3 (MUC2-N3) antibody
[5] = target: Human CLCA1 in sigmoid colon mucus and epithelial lysate (N- and C-terminal products) (human (endogenous in sigmoid colon)) (UniProt A8K7I4); test: native gel or EMSA; NativePAGE Novex Bis-Tris 4-16% with G-250; mucus and epithelial lysates from human sigmoid colon, WT and Clca1-/- mouse colon and desalted medium with rCLCA1; blotted with N- or C-terminal CLCA1 antibodies
[6] = target: C-terminal cleavage product of mouse Clca1 in distal colon mucus and epithelium (mouse (endogenous in colon)) (UniProt Q9D7Z6); test: non-reducing SDS-PAGE with immunoblot; mucus and epithelial lysate from mouse distal colon or human sigmoid colon, denatured in SDS sample buffer without DTT (non-reduced) against with 100 mM DTT (reduced), blotted with C-terminal CLCA1 antibodies; shows disulfide-linked species only
[7] = target: Mouse Clca1 in colonic mucus and epithelial lysate (N- and C-terminal products) (mouse (endogenous in colon)) (UniProt Q9D7Z6); test: native gel or EMSA; NativePAGE Novex Bis-Tris 4-16% with G-250; mucus and epithelial lysates from human sigmoid colon, WT and Clca1-/- mouse colon and desalted medium with rCLCA1; blotted with N- or C-terminal CLCA1 antibodies
[8] = target: the molecule itself; test: non-reducing SDS-PAGE with immunoblot; supernatant from hCLCA1-transfected CHO-K1 cells, reducing or nonreducing sample buffer, blotted with C terminus (3-ar) antibody; shows disulfide-linked species only

“Recombinant human CLCA1 in spent supernatant of rCLCA1-expressing CHO-K1 cells (N- and C-terminal products) (from UniProt A8K7I4 22-914; A8K7I4 22-914) (complex)” was tested, and the stoichiometry N [1] was 8.

With “C-terminal cleavage product of recombinant human CLCA1 in supernatant of transfected CHO-K1 cells (from UniProt A8K7I4 22-914) (domain or fragment)” the stoichiometry N [2] was 2.

“C-terminal cleavage product of human CLCA1 in sigmoid colon mucus and epithelium (from UniProt A8K7I4 22-914) (domain or fragment)” gave a stoichiometry N [3] of 2.

“250-kDa (nonreduced) fragment of MUC2-N after cleavage by rCLCA1, D′–D3 and CysD (domain or fragment)” showed a stoichiometry N [4] of 3.

Molecule “Human CLCA1 in sigmoid colon mucus and epithelial lysate (N- and C-terminal products) (from UniProt A8K7I4 22-914; A8K7I4 22-914) (complex)” has a stoichiometry N [5] of 8.

In the case of “C-terminal cleavage product of mouse Clca1 in distal colon mucus and epithelium (from UniProt Q9D7Z6 22-913) (domain or fragment)”, the stoichiometry N [6] is reported as 2.

“Mouse Clca1 in colonic mucus and epithelial lysate (N- and C-terminal products) (from UniProt Q9D7Z6 22-913; Q9D7Z6 22-913) (complex)” gave a stoichiometry N [7] of 8.

B1: Uncleaved recombinant human CLCA1 secreted from transfected CHO-K1 cells (natural protein, UniProt A8K7I4 22-914, looked up)
chain: NSLIQLNNNGYEGIVVAIDPNVPEDETLIQQIKDMVTQASLYLLEATGKRFYFKNVAILIPETWKTKADYVRPKLETYKNADVLVAESTPPGNDEPYTEQMGNCGEKGERIHLTPDFIAGKKLAEYGPQGRAFVHEWAHLRWGVFDEYNNDEKFYLSNGRIQAVRCSAGITGTNVVKKCQGGSCYTKRCTFNKVTGLYEKGCEFVLQSRQTEKASIMFAQHVDSIVEFCTEQNHNKEAPNKQNQKCNLRSTWEVIRDSEDFKKTTPMTTQPPNPTFSLLQIGQRIVCLVLDKSGSMATGNRLNRLNQAGQLFLLQTVELGSWVGMVTFDSAAHVQNELIQINSGSDRDTLAKRLPAAASGGTSICSGLRSAFTVIRKKYPTDGSEIVLLTDGEDNTISGCFNEVKQSGAIIHTVALGPSAAQELEELSKMTGGLQTYASDQVQNNGLIDAFGALSSGNGAVSQRSIQLESKGLTLQNSQWMNGTVIVDSTVGKDTLFLITWTMQPPQILLWDPSGQKQGGFVVDKNTKMAYLQIPGIAKVGTWKYSLQASSQTLTLTVTSRASNATLPPITVTSKTNKDTSKFPSPLVVYANIRQGASPILRASVTALIESVNGKTVTLELLDNGAGADATKDDGVYSRYFTTYDTNGRYSVKVRALGGVNAARRRVIPQQSGALYIPGWIENDEIQWNPPRPEINKDDVQHKQVCFSRTSSGGSFVASDVPNAPIPDLFPPGQITDLKAEIHGGSLINLTWTAPGDDYDHGTAHKYIIRISTSILDLRDKFNESLQVNTTALIPKEANSEEVFLFKPENITFENGTDLFIAIQAVDKVDLKSEISNIARVSLFIPPQTPPETPSPDETSAPCPNIHINSTIPGIHILKIMWKWIGELQLSIA
modifications: glycosylated
notes: human CLCA1, full-length construct, not cut at the self-cleavage site (120 kDa); also called uncleaved rCLCA1; uncleaved CLCA1; source: CHO-K1, transfected, in supernatant
B1 was tested, and the “stoichiometry N” value [8] was 2.
